In publication PMC2767389:

Molecular target: C1-100, C-terminally truncated C protein of HPIV3, C-terminally flag-tagged (human parainfluenza virus type 3)
Assay: co-IP

“HPIV3 L protein (viral RNA polymerase), non-tagged (from UniProt P12577 1-2233) (enzyme)” showed a L/C ratio of 0.03.
